Data reported in US20150266954A1.
Blank lines part the entries; values can stand above or below the substance they belong to.

What was measured:
human IL-21 (human) [1] = target: human IL-21 (human) (UniProt Q9HBE4); assay: capture ELISA, biotin-IL-21 at 3.7 nM
human IL-21 (human) [2] = target: human IL-21 (human) (UniProt Q9HBE4); assay: capture ELISA, biotin-IL-21 at 11 nM
human IL-21 (human) [3] = target: human IL-21 (human) (UniProt Q9HBE4); assay: capture ELISA, biotin-IL-21 at 0.41 nM
human IL-21 (human) [4] = target: human IL-21 (human) (UniProt Q9HBE4); assay: cell-based or functional assay
human IL-21 (human) [5] = target: human IL-21 (human) (UniProt Q9HBE4); assay: capture ELISA, biotin-IL-21 at 33 nM
human IL-21 (human) [6] = target: human IL-21 (human) (UniProt Q9HBE4); assay: capture ELISA, biotin-IL-21 at 0.14 nM
human IL-21 (human) [7] = target: human IL-21 (human) (UniProt Q9HBE4); assay: capture ELISA, biotin-IL-21 at 1.2 nM
human IL-21 (human) [8] = target: human IL-21 (human) (UniProt Q9HBE4); assay: capture ELISA, biotin-IL-21 at 0.05 nM
[9] = target: cynomolgus monkey IL-21 (cynomolgus monkey); assay: cell-based or functional assay
Sequence of cynomolgus monkey IL-21 (cynomolgus monkey) (Q9HBE4 other isoform, or with tags, fused parts or gaps): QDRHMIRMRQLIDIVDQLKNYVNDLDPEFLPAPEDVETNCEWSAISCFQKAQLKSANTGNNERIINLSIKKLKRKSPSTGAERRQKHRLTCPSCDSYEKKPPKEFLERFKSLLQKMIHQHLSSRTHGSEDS

rabbit IL-21 (rabbit) = assay: cell-based or functional assay
Sequence of rabbit IL-21 (rabbit) (chain, as listed by the source limits assumed): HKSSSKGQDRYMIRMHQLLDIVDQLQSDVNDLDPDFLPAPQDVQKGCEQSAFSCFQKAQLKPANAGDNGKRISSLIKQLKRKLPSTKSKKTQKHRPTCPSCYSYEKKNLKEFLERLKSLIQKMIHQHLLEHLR

mouse IL-21 (mouse) = mouse IL-21 (mouse) (UniProt Q9ES17); assay: cell-based or functional assay

Sequence of human IL-21 (human) (Q9HBE4 32-162): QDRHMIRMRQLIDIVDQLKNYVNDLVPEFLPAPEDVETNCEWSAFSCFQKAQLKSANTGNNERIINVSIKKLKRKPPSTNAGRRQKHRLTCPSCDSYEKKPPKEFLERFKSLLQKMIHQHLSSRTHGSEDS

OD at 560 nm (human IL-21 (human) [1]): 0.06 OD
OD at 560 nm (human IL-21 (human) [2]): 0.06 OD
OD at 560 nm (human IL-21 (human) [3]): 0.06 OD
% of maximum IL-21-induced B cell proliferation at 0.1 nM inhibitor (SDEV 5.34) (human IL-21 (human) [4]): 96%
% of maximum IL-21-induced B cell proliferation at 0.21 nM inhibitor (SDEV 10.3) (human IL-21 (human) [4]): 115%
% of maximum IL-21-induced B cell proliferation at 0.42 nM inhibitor (SDEV 17.1) (human IL-21 (human) [4]): 107%
% of maximum IL-21-induced B cell proliferation at 0.83 nM inhibitor (SDEV 15.3) (human IL-21 (human) [4]): 114%
% of maximum IL-21-induced B cell proliferation at 1.67 nM inhibitor (SDEV 4.78) (human IL-21 (human) [4]): 108%
% of maximum IL-21-induced B cell proliferation at 3.33 nM inhibitor (SDEV 18.7) (human IL-21 (human) [4]): 119%
% of maximum IL-21-induced B cell proliferation at 6.67 nM inhibitor (SDEV 17.9) (human IL-21 (human) [4]): 103%
% of maximum IL-21-induced B cell proliferation at 13.3 nM inhibitor (SDEV 6.21) (human IL-21 (human) [4]): 101%
% of maximum IL-21-induced B cell proliferation at 26.7 nM inhibitor (SDEV 11.2) (human IL-21 (human) [4]): 96%
fold increase of plasma cells (CD38 high, IgD low), donor 1, 26.7 nM antibody (IL-21 without antibody: 176) (human IL-21 (human) [4]): 174 fold
fold increase of plasma cells (CD38 high, IgD low), donor 2, 26.7 nM antibody (IL-21 without antibody: 114) (human IL-21 (human) [4]): 108 fold
fold increase of plasma cells (CD38 high, IgD low), donor 3, 26.7 nM antibody (IL-21 without antibody: 47) (human IL-21 (human) [4]): 47 fold
fold increase of plasma cells (CD38 high, IgD low), donor 4, 26.7 nM antibody (IL-21 without antibody: 68) (human IL-21 (human) [4]): 66 fold
fold increase of plasma cells (CD38 high, IgD low), donor 5, 26.7 nM antibody (IL-21 without antibody: 22) (human IL-21 (human) [4]): 23 fold
OD at 560 nm (human IL-21 (human) [5]): 0.06 OD
OD at 560 nm (human IL-21 (human) [6]): 0.06 OD
OD at 560 nm (human IL-21 (human) [7]): 0.06 OD
OD at 560 nm (human IL-21 (human) [8]): 0.06 OD
Substance: human IgG4 isotype control antibody

IC50, IM9 pan-STAT-luciferase reporter assay, IL-21 at 66.67 pM [9]: 3920 pM
IC50, IM9 pan-STAT-luciferase reporter assay, IL-21 at 66.67 pM (rabbit IL-21 (rabbit)): 321 pM
% of maximum IL-21-induced B cell proliferation at 0.1 nM inhibitor (SDEV 15.8) (human IL-21 (human) [4]): 83%
% of maximum IL-21-induced B cell proliferation at 0.21 nM inhibitor (SDEV 10.8) (human IL-21 (human) [4]): 99%
% of maximum IL-21-induced B cell proliferation at 0.42 nM inhibitor (SDEV 6.43) (human IL-21 (human) [4]): 87%
% of maximum IL-21-induced B cell proliferation at 0.83 nM inhibitor (SDEV 6.33) (human IL-21 (human) [4]): 109%
% of maximum IL-21-induced B cell proliferation at 1.67 nM inhibitor (SDEV 12.6) (human IL-21 (human) [4]): 90%
% of maximum IL-21-induced B cell proliferation at 3.33 nM inhibitor (SDEV 13.7) (human IL-21 (human) [4]): 103%
% of maximum IL-21-induced B cell proliferation at 13.3 nM inhibitor (SDEV 13.8) (human IL-21 (human) [4]): 77%
% of maximum IL-21-induced B cell proliferation at 53.3 nM inhibitor (SDEV 6.2) (human IL-21 (human) [4]): 83%
IC50, IM9 pan-STAT-luciferase reporter assay, IL-21 at 66.67 pM (human IL-21 (human) [4]): 271 pM
IC50, IM9 pan-STAT-luciferase reporter assay, IL-21 at 66.67 pM (mouse IL-21 (mouse)): 3530 pM
Substance: human IL-21R:Fc chimera (R&D Systems, cat #991-R2) (from UniProt Q9HBE5 20-232) (Fc fusion)
